The source of these data is publication PMC6152312, “Structural Insight into the Recognition of r(UAG) by Musashi-1 RBD2, and Construction of a Model of Musashi-1 RBD1-2 Bound to the Minimum Target RNA”.

The target in the data set is Msi1(109-200) (RBD2+) (mouse, UniProt Q61474 109-200). The data set can be described thus: NMR titration (15N-1H HSQC); 1:1 stoichiometry, slow exchange; 20 mM MES pH 6.0, 100 mM NaCl, 1 mM DTT, 5% D2O, 298 K (NMR sample; titration at 80 uM protein). Conditions: protein: recombinant; tags: N-terminal His6 cleaved by thrombin; extra GSHM at N-terminus; single strand.
Msi1(109-200) (RBD2+), sequence (Q61474 109-200): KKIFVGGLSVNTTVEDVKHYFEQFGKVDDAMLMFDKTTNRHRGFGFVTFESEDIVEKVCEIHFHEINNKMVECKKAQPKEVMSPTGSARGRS

Regarding GUAGU (ssRNA) [r(GUAGU)], the binding result is recorded as “binds”.
